The assay addresses CH1-AD1-Fab-h679. The assay can be described thus: equilibrium gel filtration analysis of the binary complex (DDD1 dimer docking to AD1); complex also seen by SE-HPLC.

In patent publication US20120237442A1 one finds Kd data, which are given here for one substance.

In general, pKd refers to −log10 of the Kd, conventionally taken in molar units. A higher pKd goes with a small Kd.

pKd: −log10 of the molar value.

Sequence of CH1-AD1-Fab-h679 (heavy, as listed by the source): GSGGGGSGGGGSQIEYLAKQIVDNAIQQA

Turning to CH1-DDD1-Fab-hMN-14, the pKd is 8.10.
